Data taken from the RNAGym collection of RNA variant scans (doi:10.1073/pnas.2313332121).

B1: TPR t1 (parent)
chain: GACCAAUCUGCCCUCAGAGCUCGAGAACAUCUUCGGAUGCAGAGGAGGCAGGCUUCGGUGGCGCGAUAGCGCCAACGUCCUCAACCUCCAAUGCAUCCCACCACAUGAUGAUGCCUGAAGAGCCUUGGUUUUUUG

Variants of: B1
Experiment: polymerase ribozyme fitness, log enrichment relative to wild type (log ratio); higher = more active; in vitro selection for triplet polymerase activity
Procedure, shortened: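 Only genotypes with ≥10 input reads and ≥1 read per output were kept after Illumina sequencing of input and output libraries. These libraries were PCR-built, transcribed mutants of each subunit of a heterodimeric triplet polymerase ribozyme, each put through one triplicate in vitro selection round with frozen incubation at −7 °C, gel excision of extended constructs, streptavidin-bead capture and RT-PCR. Fitness is a logarithmic ratio of genotype enrichment to wild-type enrichment, from inverse-variance-weighted replicate averages, with the logarithm in base 2.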

In order of rising “polymerase ribozyme fitness (log ratio)” value:
1. C12U A41C C72G C86A U109A  -7.19
2. C12G C34A A41C G71C C79A  -6.92
3. C12G U32G  -6.87
4. C12U G25C C94G G113A  -6.74
5. C12U C34U A84G C86A G113A  -6.74
6. C12U A18U G19C G35A G48A C72A U112A  -6.64
7. C12U A26U C34A G63A A90C C104U G113C  -6.57
8. C12U G35U C89G C115U  -6.55
9. C12G C89U C97A G113C  -6.48
10. C12U C22G C72G C104A G113C A118G U129A  -6.33
11. C12G C53A G57U G60U C94U G107U  -6.32
12. C12U C15A A43C C72U A108U C123G  -6.32
13. C12G C64G C123G  -6.23
14. C12G C64A G122A  -6.12
15. C12U C34U C72A U81C C102U U109G  -5.97
16. C12G G35A A37U G63C  -5.96
17. C12U A37U G69A G128U  -5.83
18. C12G C20A A26U  -5.8
19. C12U C22U U33A C124G  -5.71
20. C12U C40G A50G C64G A103U U112C C115A A118G G127U  -5.71
21. C12G G107U  -5.64
22. C12U C40U G57A G63U C88G A90G  -5.54
23. C12G C62G C72G U87A G113U U125G  -5.49
24. C12G C20A G69A C79U C123U  -5.46
25. C12U G17U C73U C88U C104A U109A  -5.21
26. C12U C34A G63A  -5.16
27. C12U A18C C70U A75U U125G  -5.05
28. C12G C101G G110U  -5.05
29. C12G G19U C72A  -5.03
30. C12G G42A G57C C72U U125C  -4.98
31. C12G U21C C101U A105U  -4.94
32. C12G G47U C94G G128A  -4.93
33. C12G C73U C97A  -4.85
34. C12G C72G C86A U92A G110U  -4.84
35. C12G C22A A41G G71U C124A  -4.76
36. C12U C28A C40U  -4.66
37. C12U C13G A37U U54G C80A  -4.65
38. C12G G47A G113A C124U U129G U133A  -4.6
39. C12G G39A G44A C102U  -4.47
40. C12G G63A C115G G117U  -4.35
41. C12U C22G G45A C94U C99U  -4.27
42. C12U C72A C85A C94G A111C A119G U125A U133G  -4.02
43. C12G C62G A75G U87C  -3.99
44. C12U C20G U106C  -3.81
45. C12U A27C A95U U125A  -3.79
46. C12U A46C A100G  -3.74
47. C12U C13U C76A C114G  -3.72
48. C12G G39A C82G C114U  -3.7
49. C12U A18G A41U G47C C72U U109G C124G  -3.69
50. C12G G60U G61C C88A U112A A119G  -3.63
51. C12G G52A G61C C88U G120U  -3.61
52. C12G G110C  -3.59
53. C12U A37C C94G G110A  -3.55
54. C12U C34U G61A C104U U132A U133G  -3.5
55. C12U A50U C115U  -3.47
56. C12U C20A C22G U112A  -3.37
57. C12G C76A U116A  -3.37
58. C12U C13G C49U C53U G127A  -3.32
59. C12G U116A  -3.29
60. C12G U32A  -3.25
61. C12G U78C A111U  -3.23
62. C12U G17C  -3.21
63. C12U C22U  -3.18
64. C12U C15U U21G C101A  -3.11
65. C12U C34A G63C  -3.05
66. C12U A18U C114A G128A U130A  -3
67. C12U A37C A46U C62A  -2.96
68. C12U C62A U81G C115A  -2.91
69. C12U C20A G71A U87C  -2.91
70. C12G G44A G63A U112G G122U G135U  -2.91
71. C12U A41U A66U  -2.82
72. C12U C28U C53G U129A U130C  -2.76
73. C12G G36C C114A G120A  -2.67
74. C12U G36U A74C C94U A111G U116A  -2.62
75. C12U C13G C82A G117A  -2.59
76. C12U A50U U59G G63A A119U  -2.52
77. C12U A27G C70U C88A C123G U126A  -2.52
78. C12G U21C A29U G61A C123U U131A  -2.39
79. C12U C80U C102U  -2.35
80. C12U A29U C53G A74U  -2.34
81. C12G C34A C62U  -2.32
82. C12G C53U G60C C89U C102U C104U  -2.28
83. C12G G48C A91C  -2.22
84. C12U A26G C56U C72U G117A U125G  -2.09
85. C12U G36U C94U A111G U116A  -2.07
86. C12U A26U  -2.07
87. C12G U55A C56G G63A U81C  -2.01
88. C12G C62U C89A C94U  -2
89. C12U C53G C82U G128A  -1.97
90. C12U C20A  -1.94
91. C12G C49G C72A C89U C102A  -1.91
92. C12U G19C  -1.79
93. C12G G45A A84C U106G  -1.76
94. C12G C56U A74G G77C  -1.66
95. C12U G17A U59A G61C C124A  -1.65
96. C12G G47U C64U  -1.58
97. C12G U38G G44U U78A  -1.53
98. C12G G36A C53A A74G C89U  -1.5
99. C12U C20A G120A U132C  -1.48
100. C12U C49A C115U  -1.47
101. C12U G19A G71A C73U C123A  -1.42
102. C12U C79A U106C  -1.41
103. C12G G44U U59G  -1.39
104. C12G C115U  -1.38
105. C12U C40G C72G  -1.36
106. C12G G47C  -1.34
107. C12G U14C C85U C86U  -1.22
108. C12U C15U A90G A100C  -1.2
109. C12U C114A  -1.12
110. C12G G110U  -1.12
111. C12U A41U C72G  -1.1
112. C12G G63C  -1.09
113. C12U C62U U92C  -1.06
114. C12U C49A C73U U92C  -1
115. C12G G45U  -0.996
116. C12U A16G C20U A84U U112G G113U  -0.951
117. C12G G39U C53G  -0.932
118. C12U A41G G48A C86U  -0.927
119. C12G G63A  -0.827
120. C12U A37G A95G  -0.754
121. C12G U78C  -0.718
122. C12G C20U  -0.703
123. C12U A37C  -0.693
124. C12G G48A  -0.668
125. C12U A74G U87A  -0.554
126. C12G C53U C64U U106C  -0.438
127. C12G C94U  -0.437
128. C12U C73A U96A C104U  -0.414
129. C12G G52U C53G G60U  -0.409
130. C12G C115A  -0.408
131. C12G G110A  -0.401
132. C12G G45U C101U A118U  -0.398
133. C12G G122A  -0.383
134. C12U C49G C56U  -0.342
135. C12G G63U A66U G120U G127U  -0.34
136. C12G C73U  -0.295
137. C12U G19C A46U U112A  -0.273
138. C12G G71U G77A  -0.248
139. C12U C64U C72A U87C  -0.223
140. C12G C64U C73U U131G  -0.0751
141. C12U C72G C86U C104U G122A  -0.0421
142. C12G G57C  -0.0296
143. C12G G71A  0.0302
144. C12U C62U  0.166
145. C12U C115A  0.202
146. C12G C72G  0.202
147. C12U C49A  0.257
148. C12U C72A  0.312
149. C12U A37U  0.327
150. C12G G61A  0.388
151. C12U A84C  0.463
152. C12U G36C A46U U112C G127U  0.627
153. C12U A41G  0.638
154. C12G U130C  0.663
155. C12U A83C G122U  0.68
156. C12G C73A  0.691
157. C12G G61U  0.811
158. C12U G17U A50G U112A  0.845
159. C12U A66U C123A  0.936
160. C12U C53U G71U G77A G120C  1.19
161. C12U C15U C72A A121U  1.3
162. C12G U38C G69U C123A  1.35
163. C12G G120U G127U  1.47
164. C12U C53U C124U  1.56
165. C12U C124U  1.66
166. C12U A84C G120U  1.69
167. C12U C123G  2.68
